This note sets out measurements from PMC10516904, “Dual enzyme-powered chemotactic cross β amyloid based functional nanomotors” (Nature Communications, 2023).

This data set concerns the molecule itself. Nature of the data set: TEM, SEM, AFM, CD and FTIR of the assembled peptide; peptide assembled in 40% acetonitrile/water with 0.1% TFA for a month.

B1: Ac-KLVFFAL-CONH2 (peptide)
peptide: Ac-KLVFFAL-NH2
notes: also called Ac-KL nanotubes; amylobots (chassis); source: short nanotubes by probe sonication
B1: the binding result is listed as “binds”.
